# Experimental data taken from paper PMC3176292, “Mutations in Protein-Binding Hot-Spots on the Hub Protein Smad3 Differentially Affect Its Protein Interactions and Smad3-Regulated Gene Expression” (PLoS ONE, 2011).
# Numbering of substitutions follows the chain as printed. In names and notes the source's numbering stands.
# T1: SIP1 Smad-binding domain (amino acids 315–487) on the 3xFlag-thioredoxin scaffold (UniProt Q9R0G7 315-487)
# T1 construct: SIP1, amino acids 315–487; amplified from pACT2-SIP1-315-487 (from D. Huylebroeck), which I recall as a mouse clone; cloned into the RsrII site of pCI-3xFLAG-Trx; also called Sip1 315–487; TrxSIP1; source: HEK-293, transfected, in lysate
# T1 sequence (looked up): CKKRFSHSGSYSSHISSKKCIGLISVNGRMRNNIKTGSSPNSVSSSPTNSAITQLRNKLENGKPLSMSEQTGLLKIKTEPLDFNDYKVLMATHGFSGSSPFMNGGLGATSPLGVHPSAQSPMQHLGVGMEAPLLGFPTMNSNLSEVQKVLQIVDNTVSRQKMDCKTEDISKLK
# T2: Ski Smad-binding domain (amino acids 2–56) on the 3xFlag-thioredoxin scaffold (UniProt P12755 2-56)
# T2 construct: Ski, amino acids 2–56; cloned into the unique RsrII site of pCI-3xFLAG-Trx; also called Ski aa2–56; TrxSki; source: HEK-293, transfected, in lysate
# T2 sequence (looked up): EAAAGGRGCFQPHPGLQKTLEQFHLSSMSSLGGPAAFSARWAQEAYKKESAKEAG
# T3: Flag-SkiW274E, full length (UniProt P12755 1-728, W274E)
# T3 construct: plasmid pCMV5b-Flag-SkiW274E (from K. Luo); also called SkiW274E FL; SKI274E; source: HEK-293, transfected, in lysate
# T3 sequence (looked up): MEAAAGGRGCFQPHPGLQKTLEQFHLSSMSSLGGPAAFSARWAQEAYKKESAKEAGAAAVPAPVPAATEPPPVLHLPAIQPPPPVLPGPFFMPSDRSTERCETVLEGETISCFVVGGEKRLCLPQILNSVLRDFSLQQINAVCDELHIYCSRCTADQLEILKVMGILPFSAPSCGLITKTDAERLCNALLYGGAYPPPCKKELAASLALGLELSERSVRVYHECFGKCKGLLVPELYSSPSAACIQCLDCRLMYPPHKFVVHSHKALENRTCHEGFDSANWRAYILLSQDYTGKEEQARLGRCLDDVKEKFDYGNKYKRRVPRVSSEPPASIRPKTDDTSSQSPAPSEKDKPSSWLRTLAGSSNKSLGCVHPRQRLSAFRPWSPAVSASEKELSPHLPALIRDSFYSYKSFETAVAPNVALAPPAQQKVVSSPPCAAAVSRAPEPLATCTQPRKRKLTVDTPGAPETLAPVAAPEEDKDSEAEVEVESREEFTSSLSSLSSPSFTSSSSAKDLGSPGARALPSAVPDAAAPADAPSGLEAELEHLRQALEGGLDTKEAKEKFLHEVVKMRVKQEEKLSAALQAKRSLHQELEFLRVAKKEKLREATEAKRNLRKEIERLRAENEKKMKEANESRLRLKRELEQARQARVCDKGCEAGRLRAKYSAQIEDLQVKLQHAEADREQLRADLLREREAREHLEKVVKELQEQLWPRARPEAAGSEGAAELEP
# T4: SARA Smad-binding domain (amino acids 665–721) on the 3xFlag-thioredoxin scaffold (UniProt O95405 767-823)
# T4 construct: SARA, amino acids 665–721; cloned into the unique RsrII site of pCI-3xFLAG-Trx; also called SARA aa665–721; TrxSARA; source: HEK-293, transfected, in lysate
# T4 sequence (looked up): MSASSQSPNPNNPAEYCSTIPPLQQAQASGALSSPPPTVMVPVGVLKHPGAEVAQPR
# B1: Renilla luciferase-Smad3 C338A (natural protein, UniProt P84022 1-425, looked up)
# chain: MSSILPFTPPIVKRLLGWKKGEQNGQEEKWCEKAVKSLVKKLKKTGQLDELEKAITTQNVNTKCITIPRSLDGRLQVSHRKGLPHVIYCRLWRWPDLHSHHELRAMELCEFAFNMKKDEVCVNPYHYQRVETPVLPPVLVPRHTEIPAEFPPLDDYSHSIPENTNFPAGIEPQSNIPETPPPGYLSEDGETSDHQMNHSMDAGSPNLSPNPMSPAHNNLDLQPVTYCEPAFWCSISYYELNQRVGETFHASQPSMTVDGFTDPSNSERFCLGLLSNVNRNAAVELTRRHIGRGVRLYYIGGEVFAECLSDSAIFVQSPNCNQRYGWHPATVCKIPPGANLKIFNNQEFAALLAQSVNQGFEAVYQLTRMCTIRMSFVKGWGAEYRRQTVTSTPCWIELHLNGPLQWLDKVLTQMGSPSIRCSSVS
# notes: Smad3; source: HEK-293, transfected together with constitutively active Alk5, in lysate
# B2: Renilla luciferase-Smad3 S254A (natural protein, UniProt P84022 1-425, looked up)
# chain: B1 chain with S254A, A338C
# notes: as for B1
# B3: Renilla luciferase-Smad3 K341A (natural protein, UniProt P84022 1-425, looked up)
# chain: B1 chain with A338C, K341A
# notes: as for B1
# B4: Renilla luciferase-Smad3 Q322A/Y324A (natural protein, UniProt P84022 1-425, looked up)
# chain: B1 chain with Q322A, Y324A, A338C
# notes: as for B1
# B5: Renilla luciferase-Smad3 W406A (natural protein, UniProt P84022 1-425, looked up)
# chain: B1 chain with A338C, W406A
# notes: as for B1
# B6: Renilla luciferase-Smad3 W326A (natural protein, UniProt P84022 1-425, looked up)
# chain: B1 chain with W326A, A338C
# notes: as for B1
# B7: Renilla luciferase-Smad3 L340A (natural protein, UniProt P84022 1-425, looked up)
# chain: B1 chain with A338C, L340A
# notes: as for B1
# B8: Renilla luciferase-Smad3 Y297A (natural protein, UniProt P84022 1-425, looked up)
# chain: B1 chain with Y297A, A338C
# notes: as for B1
# B9: Renilla luciferase-Smad3 E267A (natural protein, UniProt P84022 1-425, looked up)
# chain: B1 chain with E267A, A338C
# notes: as for B1
# B10: Renilla luciferase-Smad3 Y226A (natural protein, UniProt P84022 1-425, looked up)
# chain: B1 chain with Y226A, A338C
# notes: as for B1
# B11: Renilla luciferase-Smad3 V356R (natural protein, UniProt P84022 1-425, looked up)
# chain: B1 chain with A338C, V356R
# notes: as for B1
# B12: Renilla luciferase-Smad3 P335A/P336A (natural protein, UniProt P84022 1-425, looked up)
# chain: B1 chain with P335A, P336A, A338C
# notes: as for B1
# B13: Renilla luciferase-Smad3 V224A (natural protein, UniProt P84022 1-425, looked up)
# chain: B1 chain with V224A, A338C
# notes: as for B1
# Biological target: T1, SIP1 Smad-binding domain (amino acids …)
# Experiment: co-IP; LUMIER: Renilla luciferase-Smad3 and Flag-tagged partner co-expressed with constitutively active Alk5 in HEK-293; Flag protein captured from cleared lysate (TNE: 10 mM Tris-HCl pH 7.8, 150 mM NaCl, 1 mM EDTA, 1% Igepal CA-630) on anti-Flag 96-well plates, 2 h at 4 °C; co-precipitated Renilla luciferase activity, TrxGA background subtracted, percent of wild-type Smad3
# Conditions: partners not purified
row,percent binding relative to wild-type Smad3,Binder
1,44%,B1
2,128%,B2
3,66%,B3
4,162%,B4
5,15%,B5
6,319%,B6
7,159%,B7
8,80%,B8
9,88%,B9
10,7%,B10
11,7%,B11
12,123%,B12
13,339%,B13

# Biological target: T5, Flag-Smad3, full length (UniProt P84022 1-425)
# T5 construct: Smad3; plasmid pCMV5-Flag-Smad3 (from J. Massagué); bait for Smad3-Smad3 association; also called Smad3 FL; source: HEK-293, transfected together with constitutively active Alk5, in lysate
# Experiment: as above
# Conditions: partners not purified
row,percent binding relative to wild-type Smad3,Binder
1,100%,B1
2,105%,B2
3,95%,B3
4,143%,B4
5,564%,B5
6,159%,B6
7,99%,B7
8,82%,B8
9,222%,B9
10,161%,B10
11,275%,B11
12,109%,B12
13,118%,B13

# Biological target: T2, Ski Smad-binding domain (amino acids …)
# Experiment: as above
# Conditions: partners not purified
row,percent binding relative to wild-type Smad3,Binder
1,188%,B1
2,10%,B2
3,27%,B3
4,237%,B4
5,5%,B5
6,292%,B6
7,194%,B7
8,1150%,B9
9,32%,B10
10,2%,B11
11,356%,B12
12,524%,B13

# Biological target: T3, Flag-SkiW274E, full length
# Experiment: as above
# Conditions: partners not purified
row,percent binding relative to wild-type Smad3,Binder
1,111%,B1
2,78%,B2
3,55%,B3
4,100%,B4
5,21%,B5
6,88%,B6
7,57%,B7
8,29%,B8
9,137%,B9
10,89%,B10
11,30%,B11
12,118%,B12
13,212%,B13

# Biological target: T4, SARA Smad-binding domain (amino acids …)
# Experiment: as above
# Conditions: partners not purified
row,percent binding relative to wild-type Smad3,Binder
1,94%,B1
2,103%,B2
3,4%,B3
4,3%,B4
5,1%,B5
6,4%,B6
7,12%,B7
8,81%,B9
9,3%,B10
10,1%,B11
11,2%,B12
12,21%,B13

# Biological target: T6, Smurf2 Smad-binding domain (amino acids 252–330) on the Flag-thioredoxin scaffold (UniProt Q9HAU4 252-330)
# T6 construct: Smurf2, amino acids 252–330; also called Smurf2 aa252–330; TrxSmurf2; source: HEK-293, transfected, in lysate
# Experiment: as above
# Conditions: partners not purified
# T6 sequence (Q9HAU4 252-330): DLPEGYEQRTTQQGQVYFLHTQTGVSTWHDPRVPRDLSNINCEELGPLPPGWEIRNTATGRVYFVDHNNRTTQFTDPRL
row,percent binding relative to wild-type Smad3,Binder
1,153%,B1
2,113%,B2
3,130%,B3
4,308%,B4
5,1330%,B5
6,653%,B6
7,259%,B7
8,379%,B9
9,365%,B10
10,468%,B11
11,255%,B12
12,320%,B13
